Assay results taken from patent publication US7589207B2, “Cyclohexyl compounds as CCR5 antagonists” (SmithKline Beecham Corporation, priority 2002, dated 2009).

Target: T1, human CCR5 chemokine receptor (Homo sapiens, UniProt P51681)
T1 construct: host or cells: Chinese Hamster Ovary (CHO) cells; membranes prepared from the cell pellet
Assay: CC-Chemokine Receptor-5 binding by Scintillation Proximity Assay (CCR5 SPA), displacement of 125I-MIP1α
Conditions: standard compound, 14-point concentration-response curve in triplicate, starting concentration 1 μM
Protocol: CC-Chemokine Receptor-5 Binding by Scintillation Proximity Assay (CCR5 SPA) Scintillation Proximity Assay for the Human CC-Chemokine Receptor, CCR-5
This protocol describes a high-throughput screen using SPA binding to identify compounds that inhibit binding of ^125I-MIP1α to the human CCR5 chemokine receptor.
Human CCR5 receptors were expressed in Chinese Hamster Ovary (CHO) cells, registration # 12025. Cells were grown in suspension and a 50 to 80 ml CCR5 cell pellet was prepared. […]
The saturation curve binding experiment is performed by adding varying amounts of [^125I]MIP1α (0-8.5 nM to membranes and beads in concentrations chosen from the optimal protein/bead ratio. The data is analyzed using a non-linear curve-fitting program. The Kd and Bmax are derived from the curve. […]

T1 sequence (P51681 whole entry): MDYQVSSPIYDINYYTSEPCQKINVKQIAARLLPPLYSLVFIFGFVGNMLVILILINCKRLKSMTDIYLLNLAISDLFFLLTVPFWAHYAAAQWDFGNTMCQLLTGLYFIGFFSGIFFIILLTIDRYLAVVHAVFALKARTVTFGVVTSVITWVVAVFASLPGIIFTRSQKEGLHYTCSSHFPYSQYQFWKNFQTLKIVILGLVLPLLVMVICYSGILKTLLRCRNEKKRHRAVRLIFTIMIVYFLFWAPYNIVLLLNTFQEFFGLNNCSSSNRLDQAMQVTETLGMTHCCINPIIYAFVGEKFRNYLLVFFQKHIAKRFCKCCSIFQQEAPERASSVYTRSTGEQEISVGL

average historical pKi: 7.6
Substance: MIP1α: natural chemokine ligand of CCR5, used as the standard compound in the CCR5 SPA binding assay
